In series [1] the target is Crc R90E,Y91F (Flag-tagged, from pME4510crc(R90E,Y91F)Flag) (Pseudomonas aeruginosa) (UniProt Q51380).
Series [2] addresses Pseudomonas aeruginosa Hfq (Pseudomonas aeruginosa) (UniProt Q9HUM0).
Series [3] concerns the target Hfq (Pseudomonas aeruginosa) (UniProt Q9HUM0). Nature of the series: EMSA. Conditions: EMSA: 20 mM Tris-HCl pH 8.0, 40 mM NaCl, 10 mM KCl, 1 mM MgCl2; 200 nM RNA; 15 min at 37 C; 4% PAA gel in 1x TBE at 4 C, SYBR gold. In general terms: Mobility shift assays separate free from complexed probe on a gel.

The record followed here is PMC9890229.

As to “Crc R90E,Y91F (Flag-tagged, from pME4510crc(R90E,Y91F)Flag) (from UniProt Q51380 1-259) (natural protein)”, the translational repression of the rbsB+13::lacZ reporter gene (β-galactosidase activity) in P. aeruginosa PAO1Δcrc in series [1] stood at 2 fold. In addition, in series [2], the de-repression of translation of the amiE+60::lacZ reporter gene (β-galactosidase activity) in P. aeruginosa PAO1Δcrc was determined as 7 fold and the de-repression of translation of the estA+18::lacZ reporter gene (β-galactosidase activity) in P. aeruginosa PAO1Δcrc was 2 fold.

“GGAACGCAAACGUUUGCGUCUGGAUAAUCUCCUGGAAAAGCCUCAAUACAACGAUAAGAAAAGCUGGAGGAUACACCAUGAAGCGGGUCGCUUCCCGGCGCCUGUUGGCU [rbsB110]”: the binding result in series [3] is reported as “binds”.

For the substance “GGCUGAGGAGGCUUUACGACGGGCCCCGGGGCGCAUGCCGACGACGCGGCGGCCCGACAAUAAAAACAAAUCAUGGAGUAAGAGAAUGAUCAGAAUGGCGCUCAAGCCACUGGUAGCG [estA118]”, in series [3], the binding entry is on record as “binds”.

On to “GGGCCUUUUUUCGUCCCGAAAAAAUAACAACAAGAGGUGAUAUCCAUGCGUCACGGCGAUAUUUCCAGCAGCAACGACACCGUCGGAGUGGCGGUGGUCAACUAC [amiE105]”, for which the binding result in series [3] was “binds”.
